Measured values taken from IntAct's records for PubMed 24338975.

B1: G-rich sequence factor 1 (Homo sapiens), Q12849 (parent)
chain: MAGTRWVLGALLRGCGCNCSSCRRTGAACLPFYSAAGSIPSGVSGRRRLLLLLGAAAAAASQTRGLQTGPVPPGRLAGPPAVATSAAAAAAASYSALRASLLPQSLAAAAAVPTRSYSQESKTTYLEDLPPPPEYELAPSKLEEEVDDVFLIRAQGLPWSCTMEDVLNFFSDCRIRNGENGIHFLLNRDGKRRGDALIEMESEQDVQKALEKHRMYMGQRYVEVYEINNEDVDALMKSLQVKSSPVVNDGVVRLRGLPYSCNEKDIVDFFAGLNIVDITFVMDYRGRRKTGEAYVQFEEPEMANQALLKHREEIGNRYIEIFPSRRNEVRTHVGSYKGKKIASFPTAKYITEPEMVFEEHEVNEDIQPMTAFESEKEIELPKEVPEKLPEAADFGTTSSLHFVHMRGLPFQANAQDIINFFAPLKPVRITMEYSSSGKATGEADVHFETHEDAVAAMLKDRSHVHHRYIELFLNSCPKGK

Variants of: B1
Settings: with psd10_human PSMD10, O75832
Chain of psd10_human PSMD10, O75832 (O75832 whole entry): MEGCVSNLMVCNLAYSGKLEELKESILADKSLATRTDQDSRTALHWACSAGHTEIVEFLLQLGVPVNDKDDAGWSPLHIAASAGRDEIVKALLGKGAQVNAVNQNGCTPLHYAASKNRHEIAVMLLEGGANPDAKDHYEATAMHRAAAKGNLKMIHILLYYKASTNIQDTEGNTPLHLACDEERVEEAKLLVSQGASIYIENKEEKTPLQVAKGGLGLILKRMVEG
In the case of E144A;E145A;D147A, the “effect of a mutation on the interaction” value is reported as “disrupting interaction strength”.
